Test results from paper PMC7954794, “Protein context shapes the specificity of SH3 domain-mediated interactions in vivo” (Nature Communications, 2021).

System: Abp1 PPIs
Assay: DHFR-PCA of Abp1 SH3-swapped baits (Fig. 2B-D, S2C, S2F);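 for Protein-protein interaction distance between Abp1 SH3-swapped baits, to ABP1: Euclidean distance between DHFR-PCA score profiles of the baits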;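 for Protein-protein interaction distance between Abp1 SH3-swapped baits, to BEM1-2: Euclidean distance between DHFR-PCA score profiles of the baits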;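 for Protein-protein interaction distance between Abp1 SH3-swapped baits, to BOI1: Euclidean distance between DHFR-PCA score profiles of the baits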;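 for Protein-protein interaction distance between Abp1 SH3-swapped baits, to BZZ1-1: Euclidean distance between DHFR-PCA score profiles of the baits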
Assay type: cell-based, Saccharomyces cerevisiae
Settings: for Protein-protein interaction distance between Abp1 SH3-swapped baits, to ABP1: Abp1 bait with swapped SH3, distance to bait with ABP1 SH3; for Protein-protein interaction distance between Abp1 SH3-swapped baits, to ABP1 / Protein-protein interaction distance between Abp1 SH3-swapped baits, to BBC1 / Protein-protein interaction distance between Abp1 SH3-swapped baits, to BEM1-1 / Protein-protein interaction distance between Abp1 SH3-swapped baits, to BEM1-2 / Protein-protein interaction distance between Abp1 SH3-swapped baits, to BOI1 / Protein-protein interaction distance between Abp1 SH3-swapped baits, to BOI2 / Protein-protein interaction distance between Abp1 SH3-swapped baits, to BUD14 / Protein-protein interaction distance between Abp1 SH3-swapped baits, to BZZ1-1 / Protein-protein interaction distance between Abp1 SH3-swapped baits, to BZZ1-2 / Protein-protein interaction distance between Abp1 SH3-swapped baits, to CDC25 / Protein-protein interaction distance between Abp1 SH3-swapped baits, to CTTN / Protein-protein interaction distance between Abp1 SH3-swapped baits, to CYK3 / Protein-protein interaction distance between Abp1 SH3-swapped baits, to DBNL / Protein-protein interaction distance between Abp1 SH3-swapped baits, to FUS1 / Protein-protein interaction distance between Abp1 SH3-swapped baits, to HCLS1 / Protein-protein interaction distance between Abp1 SH3-swapped baits, to HOF1 / Protein-protein interaction distance between Abp1 SH3-swapped baits, to HSE1 / Protein-protein interaction distance between Abp1 SH3-swapped baits, to LSB1 / Protein-protein interaction distance between Abp1 SH3-swapped baits, to LSB3 / Protein-protein interaction distance between Abp1 SH3-swapped baits, to MYO3 / Protein-protein interaction distance between Abp1 SH3-swapped baits, to MYO5 / Protein-protein interaction distance between Abp1 SH3-swapped baits, to NBP2 / Protein-protein interaction distance between Abp1 SH3-swapped baits, to PEX13 / Protein-protein interaction distance between Abp1 SH3-swapped baits, to PIN3 / Protein-protein interaction distance between Abp1 SH3-swapped baits, to RVS167 / Protein-protein interaction distance between Abp1 SH3-swapped baits, to SDC25 / Protein-protein interaction distance between Abp1 SH3-swapped baits, to SHO1 / Protein-protein interaction distance between Abp1 SH3-swapped baits, to SLA1-1 / Protein-protein interaction distance between Abp1 SH3-swapped baits, to SLA1-2 / Protein-protein interaction distance between Abp1 SH3-swapped baits, to SLA1-3 / Protein-protein interaction distance between Abp1 SH3-swapped baits, to YSC84: sheet Fig2C; for Protein-protein interaction distance between Abp1 SH3-swapped baits, to BBC1: distance to Abp1 bait with BBC1 SH3; for Protein-protein interaction distance between Abp1 SH3-swapped baits, to BEM1-1: distance to Abp1 bait with BEM1-1 SH3; for Protein-protein interaction distance between Abp1 SH3-swapped baits, to BEM1-2: distance to Abp1 bait with BEM1-2 SH3; for Protein-protein interaction distance between Abp1 SH3-swapped baits, to BOI1: distance to Abp1 bait with BOI1 SH3; for Protein-protein interaction distance between Abp1 SH3-swapped baits, to BOI2: distance to Abp1 bait with BOI2 SH3; for Protein-protein interaction distance between Abp1 SH3-swapped baits, to BUD14: distance to Abp1 bait with BUD14 SH3; for Protein-protein interaction distance between Abp1 SH3-swapped baits, to BZZ1-1: distance to Abp1 bait with BZZ1-1 SH3; for Protein-protein interaction distance between Abp1 SH3-swapped baits, to BZZ1-2: distance to Abp1 bait with BZZ1-2 SH3; for Protein-protein interaction distance between Abp1 SH3-swapped baits, to CDC25: distance to Abp1 bait with CDC25 SH3; for Protein-protein interaction distance between Abp1 SH3-swapped baits, to CTTN: distance to Abp1 bait with CTTN SH3; for Protein-protein interaction distance between Abp1 SH3-swapped baits, to CYK3: distance to Abp1 bait with CYK3 SH3; for Protein-protein interaction distance between Abp1 SH3-swapped baits, to DBNL: distance to Abp1 bait with DBNL SH3; for Protein-protein interaction distance between Abp1 SH3-swapped baits, to FUS1: distance to Abp1 bait with FUS1 SH3; for Protein-protein interaction distance between Abp1 SH3-swapped baits, to HCLS1: distance to Abp1 bait with HCLS1 SH3; for Protein-protein interaction distance between Abp1 SH3-swapped baits, to HOF1: distance to Abp1 bait with HOF1 SH3; for Protein-protein interaction distance between Abp1 SH3-swapped baits, to HSE1: distance to Abp1 bait with HSE1 SH3; for Protein-protein interaction distance between Abp1 SH3-swapped baits, to LSB1: distance to Abp1 bait with LSB1 SH3; for Protein-protein interaction distance between Abp1 SH3-swapped baits, to LSB3: distance to Abp1 bait with LSB3 SH3; for Protein-protein interaction distance between Abp1 SH3-swapped baits, to MYO3: distance to Abp1 bait with MYO3 SH3; for Protein-protein interaction distance between Abp1 SH3-swapped baits, to MYO5: distance to Abp1 bait with MYO5 SH3; for Protein-protein interaction distance between Abp1 SH3-swapped baits, to NBP2: distance to Abp1 bait with NBP2 SH3; for Protein-protein interaction distance between Abp1 SH3-swapped baits, to PEX13: distance to Abp1 bait with PEX13 SH3; for Protein-protein interaction distance between Abp1 SH3-swapped baits, to PIN3: distance to Abp1 bait with PIN3 SH3; for Protein-protein interaction distance between Abp1 SH3-swapped baits, to RVS167: distance to Abp1 bait with RVS167 SH3; for Protein-protein interaction distance between Abp1 SH3-swapped baits, to SDC25: distance to Abp1 bait with SDC25 SH3; for Protein-protein interaction distance between Abp1 SH3-swapped baits, to SHO1: distance to Abp1 bait with SHO1 SH3; for Protein-protein interaction distance between Abp1 SH3-swapped baits, to SLA1-1: distance to Abp1 bait with SLA1-1 SH3; for Protein-protein interaction distance between Abp1 SH3-swapped baits, to SLA1-2: distance to Abp1 bait with SLA1-2 SH3; for Protein-protein interaction distance between Abp1 SH3-swapped baits, to SLA1-3: distance to Abp1 bait with SLA1-3 SH3; for Protein-protein interaction distance between Abp1 SH3-swapped baits, to YSC84: distance to Abp1 bait with YSC84 SH3
In short: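 Interactions were scored by DHFR protein-fragment complementation. DHFR F[1,2]-tagged Abp1 strains, whose SH3 was swapped for yeast or human ortholog domains, were crossed on YPD at 30 °C for 48 h with a 1536-format array of 575 prey-DHFR F[3] strains and 40 negatives, giving four replicates per pair. PCA selection lasted 4 days after double diploid selection.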

[1] = number of PPIs, difference, Abp1 SH3-swapped with the listed SH3, Fig2D,S2F

| Molecule | Protein-protein interaction distance between Abp1 SH3-swapped baits, to ABP1 | Protein-protein interaction distance between Abp1 SH3-swapped baits, to BBC1 | Protein-protein interaction distance between Abp1 SH3-swapped baits, to BEM1-1 | Protein-protein interaction distance between Abp1 SH3-swapped baits, to BEM1-2 | Protein-protein interaction distance between Abp1 SH3-swapped baits, to BOI1 | Protein-protein interaction distance between Abp1 SH3-swapped baits, to BOI2 | Protein-protein interaction distance between Abp1 SH3-swapped baits, to BUD14 | Protein-protein interaction distance between Abp1 SH3-swapped baits, to BZZ1-1 | Protein-protein interaction distance between Abp1 SH3-swapped baits, to BZZ1-2 | Protein-protein interaction distance between Abp1 SH3-swapped baits, to CDC25 | Protein-protein interaction distance between Abp1 SH3-swapped baits, to CTTN | Protein-protein interaction distance between Abp1 SH3-swapped baits, to CYK3 | Protein-protein interaction distance between Abp1 SH3-swapped baits, to DBNL | Protein-protein interaction distance between Abp1 SH3-swapped baits, to FUS1 | Protein-protein interaction distance between Abp1 SH3-swapped baits, to HCLS1 | Protein-protein interaction distance between Abp1 SH3-swapped baits, to HOF1 | Protein-protein interaction distance between Abp1 SH3-swapped baits, to HSE1 | Protein-protein interaction distance between Abp1 SH3-swapped baits, to LSB1 | Protein-protein interaction distance between Abp1 SH3-swapped baits, to LSB3 | Protein-protein interaction distance between Abp1 SH3-swapped baits, to MYO3 | further results |
| --- | --- | --- | --- | --- | --- | --- | --- | --- | --- | --- | --- | --- | --- | --- | --- | --- | --- | --- | --- | --- | --- |
| SHO1 (protein, UniProt P40073 1-367, looked up) High osmolarity signaling …: MSISSKIRPTPRKPSRMATDHSFKMKKFYADPFAISSISLAIVSWVIAIGGSISSASTNESFPRFTWWGIVYQFLIICSLMLFYCFDLVDHYRIFITTSIAVAFVYNTNSATNLVYADGPKKAAASAGVILLSIINLIWILYYGGDNASPTNRWIDSFSIKGIRPSPLENSLHRARRRGNRNTTPYQNNVYNDAIRDSGYATQFDGYPQQQPSHTNYVSSTALAGFENTQPNTSEAVNLHLNTLQQRINSASNAKETNDNSNNQTNTNIGNTFDTDFSNGNTETTMGDTLGLYSDIGDDNFIYKAKALYPYDADDDDAYEISFEQNEILQVSDIEGRWWKARRANGETGIIPSNYVQLIDGPEEMHR | 8.989 | 7.412 | 10.91 | 30.43 | 8.152 | 11.77 | 14.66 | 4.878 | 7.862 | 24.02 | 9.013 | 24.75 | 4.441 | 16.07 | 8.302 | 29.05 | 5.64 | 11.57 | 11.76 | 10.66 | Protein-protein interaction distance between Abp1 SH3-swapped baits, to MYO5: 10.26; Protein-protein interaction distance between Abp1 SH3-swapped baits, to NBP2: 13.02; Protein-protein interaction distance between Abp1 SH3-swapped baits, to PEX13: 8.672; Protein-protein interaction distance between Abp1 SH3-swapped baits, to PIN3: 9.004; Protein-protein interaction distance between Abp1 SH3-swapped baits, to RVS167: 6.815; Protein-protein interaction distance between Abp1 SH3-swapped baits, to SDC25: 31.28; Protein-protein interaction distance between Abp1 SH3-swapped baits, to SHO1: 0.00; Protein-protein interaction distance between Abp1 SH3-swapped baits, to SLA1-1: 26.8; Protein-protein interaction distance between Abp1 SH3-swapped baits, to SLA1-2: 16.55; Protein-protein interaction distance between Abp1 SH3-swapped baits, to SLA1-3: 11.51; Protein-protein interaction distance between Abp1 SH3-swapped baits, to YSC84: 12.33; PPIs gained by Abp1 - SH3-dependent PPIs gained by Abp1 [1]: 3; SH3-dependent PPIs - SH3-dependent PPIs gained by Abp1 [1]: 1; SH3-dependent PPIs gained by Abp1 (number of PPIs, Abp1 SH3-swapped with the listed SH3, DHFR-PCA, Fig2D,S2F): 1 |
| YSC84 (protein, UniProt P32793 1-468, looked up) Protein YSC84: MGINNPIPRSLKSETKKAAKVLRSFVKPNQVFGADQVIPPYVLKRAKGLAIITVLKAGFLFSGRAGSGVIVARLKDGTWSAPSAIAMAGAGAGGMVGVELTDFVFILNSEEAVRSFSEFGTITLGGNVSVSAGPLGRSAEAAASASTGGVSAVFAYSKSKGLFAGVSVEGSAILERREANRKFYGDNCTSKMILSGRVKVPPAADPLLRILESRAFNFTRHDHDDNASGDDFYDDGQYSDNTSHYYDDIPDSFDSTDESSTRPNTRSSRRRGMSLGSRSRYDDDYDDDGYGRGRGYGDFDSEDEDYDYGRSPNRNSSRNRGPQIDRGTKPRANTRWEDDLYDRDTEYSRPNHSGRDYDNTRGNRRGYGRERGYSLGHGPTHPSNMSNVDDLSHKMSKTGLGNESTATNSATPTAVALYNFAGEQPGDLAFKKGDVITILKKSDSQNDWWTGRTNGKEGIFPANYVRVS | 13.97 | 14.14 | 19.6 | 36.26 | 16.61 | 20.04 | 22.52 | 11.3 | 16.58 | 30.76 | 17.19 | 31.42 | 11.44 | 23.88 | 11.3 | 34.92 | 12.83 | 3.911 | 3.425 | 9.995 | Protein-protein interaction distance between Abp1 SH3-swapped baits, to MYO5: 8.128; Protein-protein interaction distance between Abp1 SH3-swapped baits, to NBP2: 21.76; Protein-protein interaction distance between Abp1 SH3-swapped baits, to PEX13: 7.848; Protein-protein interaction distance between Abp1 SH3-swapped baits, to PIN3: 5.862; Protein-protein interaction distance between Abp1 SH3-swapped baits, to RVS167: 8.283; Protein-protein interaction distance between Abp1 SH3-swapped baits, to SDC25: 36.86; Protein-protein interaction distance between Abp1 SH3-swapped baits, to SHO1: 12.33; Protein-protein interaction distance between Abp1 SH3-swapped baits, to SLA1-1: 33.18; Protein-protein interaction distance between Abp1 SH3-swapped baits, to SLA1-2: 24.17; Protein-protein interaction distance between Abp1 SH3-swapped baits, to SLA1-3: 6.014; Protein-protein interaction distance between Abp1 SH3-swapped baits, to YSC84: 0.00 |
